This is an account of results in paper PMC12889889.

The target of this assay is FcγRIIIa (V158 variant).
Consider “Truxima (rituximab-abbs), lot 1B1011, untreated (antibody)”, for which the ADCC Reporter Bioassay (WIL2-S target cells, Jurkat/NFAT-luc + FcγRIIIa V158 effector cells), EC50 of luciferase induction amounted to 9.09 ng/mL.
For the substance “Riabni (rituximab-arrx), lot 1141263, untreated (antibody)”, the ADCC Reporter Bioassay (WIL2-S target cells, Jurkat/NFAT-luc + FcγRIIIa V158 effector cells), EC50 of luciferase induction is 13.6 ng/mL.
Next, “Rituxan (rituximab), lot 3575428, untreated (antibody)”: 9.3 ng/mL; “Ruxience (rituximab-pvvr), lot GN4445, untreated (antibody)”: 6.06 ng/mL.
